Measurements from article PMC7164962.

Molecular target: ADHA, alcohol dehydrogenase from Candida magnoliae DSMZ 70638, wild type (Candida magnoliae DSMZ 70638)
Assay: crystal structure; purified enzyme, sitting drop, 20% w/v PEG 3350, 0.2 M sodium citrate; with or without 1 mM NADP+; quaternary structure seen in the crystal

ADHA, alcohol dehydrogenase from Candida magnoliae DSMZ 70638, wild type (enzyme)
stoichiometry N: 4
